Reference: article PMC5673899, “Structural basis for receptor recognition of pollen tube attraction peptides” (Nature Communications, 2017)
“Also recorded” adds a separate entry of the source.

Assays:
MIK1^LRR [1] = assay: ITC, AtLURE1.2 titrated into MIK1^LRR; assay type: binding, Arabidopsis; details: 25 °C, 200 mM HEPES pH 7.0, 100 mM NaCl, twenty injections of 0.5 mM AtLURE1.2 into 0.05 mM MIK1LRR
Source text: (§1) The genes of AtPRK3 ^LRR (residues 1–241), AtPRK4 ^LRR (residues 1–277), AtPRK5 ^LRR (residues 1–279), AtPRK6 ^LRR (residues 1–262), MIK1 ^LRR (residues 1–633), MIK2 ^LRR (residues 1–707) were amplified from Arabidopsis cDNA library by PCR and cloned into pFastBac-1 vector with a C-terminal 6 × His-tag. Their identities were confirmed by sequencing. The mature form of AtLURE1.1 (residues 20–94), AtLURE1.2 (residues 20–90), AtLURE1.3 (residues 21–91), and AtLURE1.4 (residues 20–90) were cloned into pFastBac-1 vector, with a modified N-terminal hemolin signal peptide and 6 × His-SUMO tag. Point mutation constructs were generated by QuickChange Site-Directed Mutagenesis Kit (Strategene). All the proteins were expressed using the Bac-to-Bac baculovirus expression system (Invitrogen) in High Five cells at 22 °C. One liter of High Five cells (2.0 × 10^6 cells mL^−1) cultured in the medium from Expression Systems was infected with 25 ml recombinant baculovirus and the media was collected after 72 h of infection. Secreted LRR proteins were purified using Ni-NTA (Novagen) and size-exclusion chromatography (Hiload 200, GE Healthcare) in buffer containing 10 mM Bis-Tris pH 6.0 and 100 mM NaCl. […]
Supplementary Figure 6: Binding affinity between MIK1LRR, MIK2LRR and AtLURE1.2 was not detected in ITC assay. […]

MIK1^LRR [2] = assay: In vitro pull-down with MIK1^LRR; assay type: binding, Arabidopsis; details: Ni-NTA, excess AtLURE1.2, on ice 30 min, washed five times; SDS-PAGE, Coomassie blue
Source text: as §1
(§2) The purified His-tagged ectodomains of AtPRK proteins and MIK1, 2 were used to pull-down the AtLURE1.2 peptide. […] All the eluted samples were analyzed by SDS-PAGE and visualized by Coomassie blue staining. […]

[3] = tested on: AtPRK6^LRR with mutations of other AtLURE1.2-interacting residues; assay: In vitro pull-down with other AtPRK6^LRR mutants; assay type: binding, Arabidopsis thaliana; details: mutations of other AtLURE1.2-interacting residues of AtPRK6^LRR
Source text: as §1, §2

B1: AtLURE1.2: mature form of AtLURE1.2 (residues 20–90), defensin-like cysteine-rich peptide expressed in insect cells (protein)
chain: TLINGSSDEERTYSFSPTTSPFDPRSLNQELKIGRIGYCFDCARACMRRGKYIRTCSFERKLCRCSISDIK
modifications: left off: His6, N-terminal, cleaved | SUMO, N-terminal, cleaved
notes: mature form of AtLURE1.2 (residues 20–90), defensin-like cysteine-rich peptide expressed in insect cells
binding in ITC (MIK1^LRR [1]): not detected; also recorded: no obvious heat was produced; also recorded: none of the purified AtPRK3^LRR, MIK1^LRR or MIK2^LRR proteins showed detectable interaction | interaction in pull-down assay (MIK1^LRR [2]): none of the other LRR proteins was found to interact | interaction in pull-down assay [3]: much less striking effects
